In patent publication US20170096485A1 (Hoffmann-La Roche, published 2017):

Columns and labels:
human mesothelin [1] = target: T1, human mesothelin (human, UniProt Q13421 296-580); experiment: cell-based or functional assay
human mesothelin [2] = target: T1, human mesothelin; experiment: cell-based or functional assay; remark: listed apart in the source
human mesothelin [3] = target: T1, human mesothelin; experiment: flow cytometry on MSLN-expressing AsPC-1 cells, 3.8 pM-300 nM, fit with GraphPad Prism6
Method: (§1) Briefly, Jurkat suspension cells were harvested, counted and checked for viability. Adherent AsPC-1 cells were harvested using Cell Dissociation Buffer (Gibco, #13151014), counted, checked for viability, and re-suspended at 0.9×10⁶ cells/ml in FACS buffer (100 μl PBS 0.1% BSA). […] Cells were re-incubated for further 30 min at 4° C. with the 1:100 pre-diluted AlexaFluor 647—F(ab′)₂ Fragment Goat Anti-Human IgG, Fey fragment specific secondary antibody (Jackson Immuno Research Lab, […] #109-096-008) and thereafter washed twice with cold PBS 0.1% BSA.
(§2) The stained cells were re-suspended in 100 μl 2% paraformaldehyde-containing FACS Buffer and incubated for 30 min at room temperature to fix the staining. Finally cells were centrifuged for 4 min at 350×g and 4° C., the supernatants were discarded and the cell pellets re-suspended in 200 μl FACS Buffer. Staining was analyzed by FACS using a FACS Canto II (Software FACS Diva). Binding curves and EC50 values were obtained using GraphPadPrism6 (FIG. 8A, binding to Jurkat cells, FIG. 8B binding to AsPC-1 cells).

human CD3 = target: T2, human CD3 (human, UniProt P07766 23-207); experiment: flow cytometry on Jurkat cells, 3.8 pM-300 nM
T2 construct: also called CD3 epsilon
T2 sequence (P07766 23-207 limits assumed): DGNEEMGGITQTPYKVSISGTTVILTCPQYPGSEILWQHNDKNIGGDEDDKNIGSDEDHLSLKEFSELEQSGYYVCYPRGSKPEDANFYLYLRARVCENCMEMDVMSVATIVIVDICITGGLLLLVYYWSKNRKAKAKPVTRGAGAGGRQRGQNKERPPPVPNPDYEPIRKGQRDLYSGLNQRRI
Method: as §1, §2

T1 sequence (Q13421 296-588): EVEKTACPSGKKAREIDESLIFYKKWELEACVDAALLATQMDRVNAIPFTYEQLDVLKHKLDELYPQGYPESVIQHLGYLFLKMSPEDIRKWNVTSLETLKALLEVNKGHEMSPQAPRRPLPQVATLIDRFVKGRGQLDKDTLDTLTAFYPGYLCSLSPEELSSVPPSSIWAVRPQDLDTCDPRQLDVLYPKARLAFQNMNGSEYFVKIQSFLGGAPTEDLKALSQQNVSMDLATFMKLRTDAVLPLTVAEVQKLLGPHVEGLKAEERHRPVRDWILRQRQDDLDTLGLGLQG

Row | Binder | EC50 of T-cell mediated lysis of AsPC-1 cells, 48 h (LDH release) (human mesothelin [1]) | EC50 of T-cell mediated lysis of BxPC-3 cells, 48 h (LDH release) (human mesothelin [1]) | EC50 of T-cell mediated lysis of NCI-H596 cells, 48 h (LDH release) (human mesothelin [1]) | EC50 of CD69 up-regulation on CD4 T cells (% CD4+CD69+), AsPC-1 target cells, 48 h (FACS) (human mesothelin [2]) | EC50 of CD69 up-regulation on CD4 T cells (% CD4+CD69+), BxPC-3 target cells, 48 h (FACS) (human mesothelin [2]) | EC50 of CD69 up-regulation on CD4 T cells (% CD4+CD69+), NCI-H596 target cells, 48 h (FACS) (human mesothelin [2]) | EC50 of CD69 up-regulation on CD8 T cells (% CD8+CD69+), AsPC-1 target cells, 48 h (FACS) (human mesothelin [2]) | EC50 of CD69 up-regulation on CD8 T cells (% CD8+CD69+), BxPC-3 target cells, 48 h (FACS) (human mesothelin [2]) | EC50 of CD69 up-regulation on CD8 T cells (% CD8+CD69+), NCI-H596 target cells, 48 h (FACS) (human mesothelin [2]) | EC50 (human mesothelin [3]) | binding result (human CD3)
1 | MSLN TCB molecule E: '1+1 IgG CrossFab, inverted' with charge modifications (bispecific antibody) heavy: not shown light 1: EVQLLESGGGLVQPGGSLRLSCAASGFTFSTYAMNWVRQAPGKGLEWVSRIRSKYNNYATYYADSVKGRFTISRDDSKNTLYLQMNSLRAEDTAVYYCVRHGNFGNSYVSWFAYWGQGTLVTVSSASVAAPSVFIFPPSDEQLKSGTASVVCLLNNFYPREAKVQWKVDNALQSGNSQESVTEQDSKDSTYSLSSTLTLSKADYEKHKVYACEVTHQGLSSPVTKSFNRGEC light 2: DIQMTQSPSSLSASVGDRVTITCSASSSVSYMHWYQQKSGKAPKLLIYDTSKLASGVPSRFSGSGSGTDFTLTISSLQPEDFATYYCQQWSKHPLTFGQGTKLEIKRTVAAPSVFIFPPSDRKLKSGTASVVCLLNNFYPREAKVQWKVDNALQSGNSQESVTEQDSKDSTYSLSSTLTLSKADYEKHKVYACEVTHQGLSSPVTKSFNRGEC DKTHTCPPCPAPEAAGGPSVFLFPPKPKDTLMISRTPEVTCVVVDVSHEDPEVKFNWYVDGVEVHNAKTKPREEQYNSTYRVVSVLTVLHQDWLNGKEYKCKVSNKALGAPIEKTISKAKGQPREPQVCTLPPSRDELTKNQVSLSCAVKGFYPSDIAVEWESNGQPENNYKTTPPVLDSDGSFFLVSKLTVDKSRWQQGNVFSCSVMHEALHNHYTQKSLSLSP | 0.145 nM | 0.115 nM | 0.182 nM | 0.167 nM | ~0.0939 nM | 0.0388 nM | 0.146 nM | ~0.0952 nM | 0.0609 nM | 1.79 nM | –
2 | MSLN TCB molecule F: '1+1 IgG CrossMab' with charge modifications (bispecific antibody) heavy 1: QVQLVQSGAEVKKPGASVKVSCKASGYSFTGYTMNWVRQAPGQGLEWMGLITPYNGASSYNQKFRGKATMTVDTSTSTVYMELSSLRSEDTAVYYCARGGYDGRGFDYWGQGTLVTVSSASTKGPSVFPLAPSSKSTSGGTAALGCLVEDYFPEPVTVSWNSGALTSGVHTFPAVLQSSGLYSLSSVVTVPSSSLGTQTYICNVNHKPSNTKVDEKVEPKSCDKTHTCPPCPAPEAAGGPSVFLFPPKPKDTLMISRTPEVTCVVVDVSHEDPEVKFNWYVDGVEVHNAKTKPREEQYNSTYRVVSVLTVLHQDWLNGKEYKCKVSNKALGAPIEKTISKAKGQPREPQVCTLPPSRDELTKNQVSLSCAVKGFYPSDIAVEWESNGQPENNYKTTPPVLDSDGSFFLVSKLTVDKSRWQQGNVFSCSVMHEALHNHYTQKSLSLSP heavy 2: not shown light 1: EVQLLESGGGLVQPGGSLRLSCAASGFTFSTYAMNWVRQAPGKGLEWVSRIRSKYNNYATYYADSVKGRFTISRDDSKNTLYLQMNSLRAEDTAVYYCVRHGNFGNSYVSWFAYWGQGTLVTVSSASVAAPSVFIFPPSDEQLKSGTASVVCLLNNFYPREAKVQWKVDNALQSGNSQESVTEQDSKDSTYSLSSTLTLSKADYEKHKVYACEVTHQGLSSPVTKSFNRGEC light 2: DIQMTQSPSSLSASVGDRVTITCSASSSVSYMHWYQQKSGKAPKLLIYDTSKLASGVPSRFSGSGSGTDFTLTISSLQPEDFATYYCQQWSKHPLTFGQGTKLEIKRTVAAPSVFIFPPSDRKLKSGTASVVCLLNNFYPREAKVQWKVDNALQSGNSQESVTEQDSKDSTYSLSSTLTLSKADYEKHKVYACEVTHQGLSSPVTKSFNRGEC | 0.37 nM | – | 0.319 nM | 0.299 nM | ~0.0958 nM | 0.0454 nM | 0.118 nM | 0.479 nM | 0.0532 nM | 4.59 nM | binds
3 | MSLN TCB molecule C: '2+1 IgG CrossFab, inverted' without charge modifications (VH/VL exchange in CD3 binder) (bispecific antibody) light: EVQLLESGGGLVQPGGSLRLSCAASGFTFSTYAMNWVRQAPGKGLEWVSRIRSKYNNYATYYADSVKGRFTISRDDSKNTLYLQMNSLRAEDTAVYYCVRHGNFGNSYVSWFAYWGQGTLVTVSSASVAAPSVFIFPPSDEQLKSGTASVVCLLNNFYPREAKVQWKVDNALQSGNSQESVTEQDSKDSTYSLSSTLTLSKADYEKHKVYACEVTHQGLSSPVTKSFNRGEC chain 1: QVQLVQSGAEVKKPGASVKVSCKASGYSFTGYTMNWVRQAPGQGLEWMGLITPYNGASSYNQKFRGKATMTVDTSTSTVYMELSSLRSEDTAVYYCARGGYDGRGFDYWGQGTLVTVSSASTKGPSVFPLAPSSKSTSGGTAALGCLVKDYFPEPVTVSWNSGALTSGVHTFPAVLQSSGLYSLSSVVTVPSSSLGTQTYICNVNHKPSNTKVDKKVEPKSCDKTHTCPPCPAPEAAGGPSVFLFPPKPKDTLMISRTPEVTCVVVDVSHEDPEVKFNWYVDGVEVHNAKTKPREEQYNSTYRVVSVLTVLHQDWLNGKEYKCKVSNKALGAPIEKTISKAKGQPREPQVCTLPPSRDELTKNQVSLSCAVKGFYPSDIAVEWESNGQPENNYKTTPPVLDSDGSFFLVSKLTVDKSRWQQGNVFSCSVMHEALHNHYTQKSLSLSP chain 2: not shown chain 3: DIQMTQSPSSLSASVGDRVTITCSASSSVSYMHWYQQKSGKAPKLLIYDTSKLASGVPSRFSGSGSGTDFTLTISSLQPEDFATYYCQQWSKHPLTFGQGTKLEIKRTVAAPSVFIFPPSDEQLKSGTASVVCLLNNFYPREAKVQWKVDNALQSGNSQESVTEQDSKDSTYSLSSTLTLSKADYEKHKVYACEVTHQGLSSPVTKSFNRGEC | – | – | – | – | – | – | – | – | – | 0.828 nM | –
